According to article PMC6032869 (Allergy, 2018):

What was measured:
Test in all cases: ELISA; inhibition ELISA: plate-bound allergen (1 ug/mL) pre-incubated with 20 ug/mL H3-1 or control ScFv, then sera of birch pollen-allergic patients diluted 1:5; bound IgE detected; % reduction against control ScFv
Conditions in all cases: both partners purified
[1] = target: T1, Aln g 1, Bet v 1-related allergen from alder (Alnus glutinosa, UniProt P38948)
T1 construct: Aln g 1, alder pollen allergen, Swissprot P38948; source: recombinant; materials described in Data S1

[2] = target: T2, Cor a 1, Bet v 1-related allergen from hazel (Corylus avellana, UniProt Q08407)
T2 construct: Cor a 1, hazel allergen, Swissprot Q08407; source: recombinant; materials described in Data S1

[3] = target: T3, Mal d 1, Bet v 1-related allergen from apple (Malus domestica, UniProt Q9SYW3)
T3 construct: Mal d 1, apple allergen, Swissprot Q9SYW3; source: recombinant; materials described in Data S1
T3 sequence (Q9SYW3 entry or part of it): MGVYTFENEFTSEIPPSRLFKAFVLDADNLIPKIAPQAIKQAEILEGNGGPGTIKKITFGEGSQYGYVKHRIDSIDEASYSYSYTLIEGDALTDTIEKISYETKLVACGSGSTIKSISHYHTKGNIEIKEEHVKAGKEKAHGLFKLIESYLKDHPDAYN

T2 sequence (Q08407 whole entry, looked up): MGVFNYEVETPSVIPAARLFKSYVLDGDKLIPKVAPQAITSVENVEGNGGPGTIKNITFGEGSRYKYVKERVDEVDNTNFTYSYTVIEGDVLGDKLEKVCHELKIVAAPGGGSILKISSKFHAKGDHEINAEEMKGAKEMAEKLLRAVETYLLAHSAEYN
T1 sequence (P38948 whole entry, looked up): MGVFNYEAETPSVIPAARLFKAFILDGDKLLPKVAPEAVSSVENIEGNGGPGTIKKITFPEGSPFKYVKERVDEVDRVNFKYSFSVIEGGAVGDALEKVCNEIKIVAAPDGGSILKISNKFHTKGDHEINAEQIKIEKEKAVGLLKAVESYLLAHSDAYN

B1: Bet v 1-specific IgG-derived ScFv H3-1 (scFv, V domains shown)
VH: QVQLVQSGAEVKKPGSSVKVSCKASGGTFSSYAISWVRQAPGQGLEWMGRIIPILGIVNYAQKFQGRVTITADKSTSTAYMELSSLRSEDTAVYYCAREPLGYCSGGSCYPLHNGMDVWGQGTTVTVSS
VL: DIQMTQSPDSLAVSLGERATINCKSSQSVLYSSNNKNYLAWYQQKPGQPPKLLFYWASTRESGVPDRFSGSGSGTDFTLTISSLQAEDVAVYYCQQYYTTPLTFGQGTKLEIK
notes: VH of H3-1 (H3-1_HV); (Gly4Ser)3 linker; V kappa of H3-1 (H3-1_KV); Cloned in phagemid pCANTAB 5E; The E tag is named for the direct ELISA (detection with anti-E Tag antibody); A form with a C-terminal His tag was also constructed; also called ScFv (clone H3-1); H3-1 ScFv; source: also tested as soluble ScFv after conversion of phage clones; not shown: E tag, C-terminal, kept
% inhibition of IgE binding, patient 21 [1]: 13.4% | % inhibition of IgE binding, patient 22 [1]: 37.1% | % inhibition of IgE binding, patient 23 [1]: 6.2% | % inhibition of IgE binding, patient 24 [1]: 12.9% | % inhibition of IgE binding, patient 25 [1]: 17.5% | % inhibition of IgE binding, patient 26 [1]: 23.7% | % inhibition of IgE binding, patient 27 [1]: 26.1% | % inhibition of IgE binding, patient 28 [1]: 26.1% | % inhibition of IgE binding, patient 30 [1]: 10.7% | mean % inhibition of patients' IgE binding [1]: 13.2% | % inhibition of IgE binding, patient 1 [2]: 32.7% | % inhibition of IgE binding, patient 5 [2]: 29% | % inhibition of IgE binding, patient 7 [2]: 19% | % inhibition of IgE binding, patient 9 [2]: 48.9% | % inhibition of IgE binding, patient 10 [2]: 8.6% | % inhibition of IgE binding, patient 12 [2]: 44.9% | % inhibition of IgE binding, patient 13 [2]: 35% | % inhibition of IgE binding, patient 16 [2]: 18.4% | % inhibition of IgE binding, patient 17 [2]: 43% | % inhibition of IgE binding, patient 18 [2]: 40.9% | % inhibition of IgE binding, patient 19 [2]: 33.6% | % inhibition of IgE binding, patient 20 [2]: 33.9% | % inhibition of IgE binding, patient 21 [2]: 6% | % inhibition of IgE binding, patient 22 [2]: 53.7% | % inhibition of IgE binding, patient 23 [2]: 21.1% | % inhibition of IgE binding, patient 24 [2]: 36% | % inhibition of IgE binding, patient 25 [2]: 57.6% | % inhibition of IgE binding, patient 26 [2]: 22% | % inhibition of IgE binding, patient 27 [2]: 31.2% | % inhibition of IgE binding, patient 28 [2]: 45.1% | % inhibition of IgE binding, patient 29 [2]: 39.6% | % inhibition of IgE binding, patient 30 [2]: 29.5% | mean % inhibition of patients' IgE binding [2]: 29.1% | % inhibition of IgE binding, patient 1 [3]: 8.6% | % inhibition of IgE binding, patient 5 [3]: 3.6% | % inhibition of IgE binding, patient 9 [3]: 10.9% | % inhibition of IgE binding, patient 10 [3]: 10.5% | % inhibition of IgE binding, patient 11 [3]: 19.1% | % inhibition of IgE binding, patient 12 [3]: 22.4% | % inhibition of IgE binding, patient 13 [3]: 27.4% | % inhibition of IgE binding, patient 16 [3]: 2.3% | % inhibition of IgE binding, patient 17 [3]: 40.5% | % inhibition of IgE binding, patient 18 [3]: 17.1% | % inhibition of IgE binding, patient 19 [3]: 15.3% | % inhibition of IgE binding, patient 20 [3]: 16.5% | % inhibition of IgE binding, patient 21 [3]: 11.9% | % inhibition of IgE binding, patient 22 [3]: 26.3% | % inhibition of IgE binding, patient 23 [3]: 3% | % inhibition of IgE binding, patient 24 [3]: 19.3% | % inhibition of IgE binding, patient 25 [3]: 17.9% | % inhibition of IgE binding, patient 26 [3]: 19.7% | % inhibition of IgE binding, patient 27 [3]: 27.4% | % inhibition of IgE binding, patient 28 [3]: 8.2% | % inhibition of IgE binding, patient 29 [3]: 22.5% | mean % inhibition of patients' IgE binding [3]: 16.1%
